In general, Ki refers to the dissociation constant of the complex between target and ligand, obtained from inhibition or displacement. A higher Ki goes with weaker binding.

Where a chain is given by its changes, count along the chain named.

B1: corn Hageman factor inhibitor (CHFI), control protein from Zea mays seeds (natural protein)
chain: SAGTSCVPGWAIPHNPLPSCRWYVTSRTCGIGPRLPWPELKRRCCRELADIPAYCRCTALSILMDGAIPPGPDAQLEGRLEDLPGCPREVQRGFAATLVTEAECNLATIS
B2: CHFI-1245, full-size CHFI with Cys29 substituted by Asp (natural protein)
chain: B1 chain with C29D
B3: CHFI-12345, recombinant full-size CHFI without any truncations (natural protein)
chain: B1 chain
B4: CHFI-2345 (domain or fragment)
chain: IPHNPLPSCRWYVTSRTCGIGPRLPWPELKRRCCRELADIPAYDRCTALSILMDGAIPPGPDAQLEGRLEDLPGCPREVQRGFAATLVTEAECNLATISGVAECPWILGGGTMPSK

bovine pancreatic trypsin (bovine), sequence (P00760 24-246): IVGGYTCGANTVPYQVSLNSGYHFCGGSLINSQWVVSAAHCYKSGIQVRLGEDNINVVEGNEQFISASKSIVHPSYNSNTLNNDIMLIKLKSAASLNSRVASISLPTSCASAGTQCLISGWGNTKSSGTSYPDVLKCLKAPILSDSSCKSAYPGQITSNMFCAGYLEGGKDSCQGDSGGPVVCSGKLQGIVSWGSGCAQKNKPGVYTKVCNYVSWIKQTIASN

The first test addresses bovine pancreatic trypsin (bovine). As to the kind of experiment: chromogenic enzyme inhibition assay; 1 nM trypsin, 500 μM S2765, 37 °C, 110 mM Tris-HCl pH 8.0, 250 mM NaCl, 1% BSA; residual activity in triplicate at at least six inhibitor concentrations; Ki from a linear fit of 1/v against inhibitor concentration.
On to B1, for which the inhibition constant Ki worked out at 2.1 nM. This lies in the single-digit nanomolar range.

The molecule B2 showed a Ki of 250 nM. This Ki lies about 120-fold higher than the previous one.

B3 registered a Ki of 1.3 nM.

As for B4, the Ki was 2.9 nM.

In a further test the target is activated coagulation factor XII (FXIIa). As to the kind of experiment: chromogenic enzyme inhibition assay; 1 nM FXIIa, 500 μM S2302, 37 °C, 110 mM Tris-HCl pH 8.0, 250 mM NaCl, 1% BSA; residual activity in triplicate at at least six inhibitor concentrations; Ki from a linear fit of 1/v against inhibitor concentration.
Molecule B1 registered a Ki of 1 nM. In other words, the single-digit nanomolar range.

The molecule B2 displayed a Ki of 50 nM.

B3 showed a Ki of 1.1 nM. This Ki is about 45-fold lower than that of the molecule before.

In the case of B4, the Ki amounted to 1 nM.

For the origin of these results see PMC4022879.
